From US20260097149A1 (RESEARCH FOUNDATION FOR THE STATE UNIVERSITY OF NEW YORK, published 2026)

Biological target: T1, integrin α4β1 (human, UniProt P13612 34-1032; P05556 21-798)
T1 construct: whole, on cells; Present on human PBMNC isolated from blood and on HUVEC; also called α4β1 integrin; CD49d (α4β1 integrin)
Assay: capture of PBMNC on immobilised H2R5 against blocking antibody and heparin-only control

T1 sequence (P13612 34-1032, chain 1 of 2): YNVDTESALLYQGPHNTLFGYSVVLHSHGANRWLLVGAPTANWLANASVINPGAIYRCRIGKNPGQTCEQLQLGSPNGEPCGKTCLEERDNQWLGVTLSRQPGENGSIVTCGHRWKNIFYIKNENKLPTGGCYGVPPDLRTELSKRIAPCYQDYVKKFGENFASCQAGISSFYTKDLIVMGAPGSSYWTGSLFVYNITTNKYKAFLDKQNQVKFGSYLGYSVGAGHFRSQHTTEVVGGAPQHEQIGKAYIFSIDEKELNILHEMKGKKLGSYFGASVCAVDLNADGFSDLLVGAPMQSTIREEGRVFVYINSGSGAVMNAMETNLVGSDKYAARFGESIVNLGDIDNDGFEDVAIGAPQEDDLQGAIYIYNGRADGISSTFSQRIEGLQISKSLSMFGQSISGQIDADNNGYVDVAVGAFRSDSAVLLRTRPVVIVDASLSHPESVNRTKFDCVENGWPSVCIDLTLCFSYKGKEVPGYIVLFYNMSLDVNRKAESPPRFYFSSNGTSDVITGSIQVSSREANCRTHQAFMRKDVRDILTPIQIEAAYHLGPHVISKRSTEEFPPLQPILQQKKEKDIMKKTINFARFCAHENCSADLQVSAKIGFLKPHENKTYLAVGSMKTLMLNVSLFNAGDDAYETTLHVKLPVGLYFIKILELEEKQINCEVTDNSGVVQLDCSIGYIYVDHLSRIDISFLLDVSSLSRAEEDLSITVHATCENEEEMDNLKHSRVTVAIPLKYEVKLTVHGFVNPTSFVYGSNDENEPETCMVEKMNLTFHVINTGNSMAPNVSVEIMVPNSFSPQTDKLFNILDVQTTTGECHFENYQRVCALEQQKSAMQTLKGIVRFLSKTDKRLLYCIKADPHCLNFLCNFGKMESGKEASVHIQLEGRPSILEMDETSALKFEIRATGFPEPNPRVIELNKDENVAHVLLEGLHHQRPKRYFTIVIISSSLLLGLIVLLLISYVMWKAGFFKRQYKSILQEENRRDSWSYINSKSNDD
T1 sequence (P05556 21-798, chain 2 of 2): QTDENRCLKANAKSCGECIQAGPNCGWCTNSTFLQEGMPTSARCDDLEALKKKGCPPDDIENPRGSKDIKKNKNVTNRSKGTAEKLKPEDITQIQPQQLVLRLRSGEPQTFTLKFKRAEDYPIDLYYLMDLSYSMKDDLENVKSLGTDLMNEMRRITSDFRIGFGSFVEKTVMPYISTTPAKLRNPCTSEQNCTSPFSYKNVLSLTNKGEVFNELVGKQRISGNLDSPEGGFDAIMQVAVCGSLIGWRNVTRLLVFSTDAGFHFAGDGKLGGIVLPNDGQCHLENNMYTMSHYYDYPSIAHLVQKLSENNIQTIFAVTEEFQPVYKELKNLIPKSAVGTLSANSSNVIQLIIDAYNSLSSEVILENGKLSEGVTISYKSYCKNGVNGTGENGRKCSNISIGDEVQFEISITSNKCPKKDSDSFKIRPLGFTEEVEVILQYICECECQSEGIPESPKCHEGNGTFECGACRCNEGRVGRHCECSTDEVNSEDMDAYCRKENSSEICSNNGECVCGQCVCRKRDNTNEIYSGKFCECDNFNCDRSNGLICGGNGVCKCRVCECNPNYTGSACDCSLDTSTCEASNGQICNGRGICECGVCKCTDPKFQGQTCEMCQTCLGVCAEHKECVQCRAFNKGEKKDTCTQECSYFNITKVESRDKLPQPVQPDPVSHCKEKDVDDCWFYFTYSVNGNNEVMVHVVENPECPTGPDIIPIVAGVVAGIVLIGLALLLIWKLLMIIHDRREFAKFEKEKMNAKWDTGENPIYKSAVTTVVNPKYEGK

B1: H2R5 fusion protein, H2-(GGGS-…)5 (designed binder)
chain: MGSSHHHHHHSSGLVPRGSHMASMTGGQQMGRGSAIPAPTDLKFTQGTPTSLSAQWTPPNVQLTGYRVRVTPKEKTGPMKEINLAPDSSSVVVSGLMVATKYEVSVYALKDTLTSRPAQGVVTTLENVSPPRRARVTDATETTITISWRTKTETITGFQVDAVPANGQTPIQRTIKPDVRSYTITGLQPGTDYKIYLYTLNDNARSSPVVIDASTAIDAPSNLRFLATTPNSLLVSWQPPRARITGYIIKYEKPGSPPREVVPRPRPGVTEATITGLEPGTEYTIYVIALKNNQKSEPLIGHKLGGGGSHIPREDVDYHGGGGSHIPREDVDYHGGGGSHIPREDVDYHGGGGSHIPREDVDYHGGGGSHIPREDVDYHLEHHHHHH
notes: no residue limits are stated; also called fusion peptide (H2R5); His tagged fusion protein
- binding result: binds
